Four molecules from patent US20160311887A1 (CAMBRIDGE ENTERPRISE, published 2016) can be followed below.

Residue numbers refer to the chain shown, from its start. Names and notes keep the numbering of the source. Read-outs that look alike come from different tables or passages of the source.

Assay [1] has as its target T1, thrombin (UniProt P00734 328-622). Description: pseudo-first-order inhibition kinetics, residual chromogenic activity, with equimolar unfractionated heparin. The method, then: (§1) PCI, unlike α₁AT, binds heparin and this binding considerably increases its inhibition of thrombin and APC (Pratt & Church, 1992). We therefore tested the inhibition of thrombin and APC by the P1′K and P2KP1′K PCI mutants in the presence of heparin to see if the swap in specificity seen in Table 1 would persist. Rate constants were measured under pseudo-first-order conditions using an excess of PCI over protease. PCI was preincubated with an equimolar concentration of unfractionated heparin for 30 min prior to the experiment. PCI:heparin and protease were incubated together for varying lengths of time and the residual activity after certain timepoints determined by adding an excess of chromogenic substrate for the protease mixed with polybrene to bind the heparin. Plots of residual protease activity over time gave the observed rate constant kobs. The second-order rate constant, k₂, is the slope of the plot of kobs versus serpin concentration (fitted using a linear regression model). Standard errors of the slope are shown. […] This might be due to the substrate pathway or complex dissociation. As for the inhibition in the absence of heparin, the P1′K and P2KP1′K mutants of PCI, unlike the WT protein were specific for APC over thrombin (Table 2).

In assay [2] the target is T2, activated Protein C (APC) (human, UniProt P04070 43-197; P04070 212-461).
T2 construct: also called human plasma APC
The assay is described as above. How it is done: as §1

For assay [3], the target named is T2, activated Protein C (APC). The assay can be described thus: ratio of rate constants, APC over fXIa. How it is done: (§2) Rate constants of thrombin and APC inhibition were measured under pseudo-first-order conditions using an excess of serpin over protease (Table 1). Serpin and protease were incubated together for varying lengths of time and the residual activity was determined by adding an excess of chromogenic substrate for the protease (S2238 for thrombin and […] for APC). Residual protease activity was then measured by following the absorbance at 405 nm. Plots of residual protease activity over time gave the observed rate constant kobs. The second-order rate constant, ₖ₂, is the slope of the plot of kobs versus serpin concentration (fitted using a linear regression model). Standard errors of the slope are shown.
(§3) Second-order rate constants of inhibition for inhibition of fXIa by PCI and the P2KP1′K variant were measured under pseudo-first-order conditions using an excess of serpin over protease. Serpin and protease were incubated together for varying lengths of time and the residual activity determined by adding an excess of chromogenic substrate for the protease (S2366). Plots of residual protease activity over time gave the observed rate constant kobs. The second-order rate constant, k₂, is the slope of the plot of kobs versus serpin concentration (fitted using a linear regression model).

Assay [4] concerns the target T2, activated Protein C (APC). Description: ratio of rate constants, APC over thrombin (repeated from Table 1).
Assay [5] concerns the target T2, activated Protein C (APC). Description: ratio of rate constants, APC over fXa. How it is done: (§4) The inhibition of APC was reduced but still considerable, especially for the variants of α₁AT and the PCI variants in the presence of heparin. However, the specificity of PCI and α₁AT Pitts is not limited to thrombin and APC. […] In order not to inhibit coagulation, our variants also need to be specific for APC over fXa. We therefore also determined the rate constants of inhibition of PCI and α₁AT and their variants for fXa (Table 3). Rate constants were measured under pseudo-first-order conditions using an excess of serpin over protease. Serpin and protease were incubated together for varying lengths of time and the residual activity determined by adding an excess of chromogenic substrate (S2222) for the protease. Plots of residual protease activity over time gave the observed rate constant kobs. The second-order rate constant, k₂, is the slope of the plot of kobs versus serpin concentration (fitted using a linear regression model). Standard errors of the slope are shown (Table 3).

In assay [6] the target is T2, activated Protein C (APC). The assay can be described thus: ratio of rate constants with heparin, APC over thrombin. How it is done: as §1
In assay [7] the target is T2, activated Protein C (APC). The assay can be described thus: ratio of rate constants, APC over thrombin. The method, then: as §2
In assay [8] the target is T1, thrombin. Description: pseudo-first-order inhibition kinetics (repeated from Table 1). The method, then: as §2
The target of assay [9] is T2, activated Protein C (APC). The assay is described as above. How it is done: as §2
The target of assay [10] is T1, thrombin. Description: pseudo-first-order inhibition kinetics, residual chromogenic activity, no heparin. How it is done: as §2
For assay [11], the target named is T2, activated Protein C (APC). The description is as above. The method, then:
as §2

Another assay has as its target T3, fXa (UniProt P00742 41-179; P00742 235-488).
T3 construct: also called factor Xa
The assay can be described thus: pseudo-first-order inhibition kinetics, residual chromogenic activity (S2222). How it is done:
as §4

The target in assay [12] is T1, thrombin. The assay can be described thus: pseudo-first-order inhibition kinetics, residual chromogenic activity. How it is done: as §2
Assay [13] deals with T2, activated Protein C (APC). The assay is described as above. The method, then: as §2
Assay [14] concerns the target T2, activated Protein C (APC). Description: ratio of rate constants, APC over fXIa. How it is done:
APC inhibition is shown for comparison (from Table 1). Standard errors are shown.
as §3, with “In addition we wanted to determine whether FL α₁AT Pitts C232S P2KP1′K affected the intrinsic (contact activation) pathway. Second-order” for “Second-order”, “inhibition” for “inhibition for inhibition”, “FL α₁AT Pitts C232S” for “PCI”, “pseudo first-order” for “pseudo-first-order”, “model). Standard errors of the slope are given.” for “model).”
This is another data set of the same source.

Assay [15] concerns the target T2, activated Protein C (APC). Description: ratio of rate constants, APC over thrombin (repeated from Table 1). The method, then:
as §2
The source holds these as a separate data set.

The target in assay [16] is T2, activated Protein C (APC). The assay can be described thus: ratio of rate constants, APC over fXa (repeated from Table 3). How it is done:
as §4

In assay [17] the target is T1, thrombin. Description: pseudo-first-order inhibition kinetics, residual chromogenic activity (S2238). How it is done: as §2

T2 sequence (P04070 43-197, chain 1 of 2): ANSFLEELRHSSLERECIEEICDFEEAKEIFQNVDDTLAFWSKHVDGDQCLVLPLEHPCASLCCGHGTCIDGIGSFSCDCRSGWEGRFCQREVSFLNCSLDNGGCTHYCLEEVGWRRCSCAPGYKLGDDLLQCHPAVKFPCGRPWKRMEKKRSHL
T2 sequence (P04070 212-461, chain 2 of 2): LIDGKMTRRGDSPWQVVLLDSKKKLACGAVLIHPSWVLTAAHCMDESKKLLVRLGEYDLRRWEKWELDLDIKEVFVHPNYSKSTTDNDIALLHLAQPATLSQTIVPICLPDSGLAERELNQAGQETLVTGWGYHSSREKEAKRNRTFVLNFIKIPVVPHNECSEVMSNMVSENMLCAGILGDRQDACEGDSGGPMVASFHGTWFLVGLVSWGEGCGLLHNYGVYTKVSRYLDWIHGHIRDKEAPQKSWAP
T3 sequence (P00742 41-179 limits assumed, form in doubt, chain 1 of 2): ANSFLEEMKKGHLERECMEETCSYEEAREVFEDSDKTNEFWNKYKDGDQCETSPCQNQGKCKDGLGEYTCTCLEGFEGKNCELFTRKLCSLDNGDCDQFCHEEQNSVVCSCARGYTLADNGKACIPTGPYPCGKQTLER
T3 sequence (P00742 235-488 limits assumed, form in doubt, chain 2 of 2): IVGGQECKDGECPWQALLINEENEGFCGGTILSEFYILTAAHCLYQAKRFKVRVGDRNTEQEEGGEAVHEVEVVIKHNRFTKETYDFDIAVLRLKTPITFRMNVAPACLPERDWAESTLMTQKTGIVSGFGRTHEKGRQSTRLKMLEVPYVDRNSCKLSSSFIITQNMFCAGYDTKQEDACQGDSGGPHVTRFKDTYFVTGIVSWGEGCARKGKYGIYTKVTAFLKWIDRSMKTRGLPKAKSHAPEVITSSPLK

B1: A22 WT PCI (other)
chain: APSSRRDFTFDLYRALASAAPSQNIFFSPVSISMSLAMLSLGAGSSTKMQILEGLGLNLQKSSEKELHRGFQQLLQELNQPRDGFQLSLGNALFTDLVVDLQDTFVSAMKTLYLADTFPTNFRDSAGAMKQINDYVAKQTKGKIVDLLKNLDSNAVVIMVNYIFFKAKWETSFNHKGTQEQDFYVTSETVVRVPMMSREDQYHYLLDRNLSCRVVGVPYQGNATALFILPSEGKMQQVENGLSEKTLRKWLKMFKKRQLELYLPKFSIEGSYQLEKVLPSLGISNVFTSHADLSGISNHSNIQVSEMVHKAVVEVDESGTRAAAATGTIFTFRSARLNSQRLVFNRPFLMFIVDNNILFLGKVNRP
notes: Serpin; E. coli, SUMO tag removed; also called A22 wild-type (WT) PCI
With B1, the “second-order rate constant of inhibition” value was determined as 1.31e+06 M⁻¹ s⁻¹ with thrombin [1]; 564000 M⁻¹ s⁻¹ in [2]; 28200 M⁻¹ s⁻¹ with thrombin [8]; 680 M⁻¹ s⁻¹ in [9]; 28200 M⁻¹ s⁻¹ with thrombin [10]; 680 M⁻¹ s⁻¹ in assay [11]. The “second-order rate constant of inhibition” value with fXa is 10300 M⁻¹ s⁻¹. Moreover, the “inhibition of APC/fXIa” value in assay [3] came to 0.08 fold. Further, the “inhibition of APC/thrombin” value in [4] stood at 0.02 fold. In assay [5], the “fold inhibition APC/fXa” value was 0.07 fold. The “fold inhibition APC/thrombin” value in [6] is 0.4 fold; in assay [7], 0.02 fold.

B2: A22 P2KP1′K PCI (other)
chain: B1 chain with F332K, S334K
notes: As A22 WT PCI
As for B2, the “second-order rate constant of inhibition” value in assay [2] is 146000 M⁻¹ s⁻¹; in assay [9] it was 280 M⁻¹ s⁻¹; in assay [11], 280 M⁻¹ s⁻¹. The “inhibition of APC/fXIa” value in assay [3] was 12.2 fold. In addition, the “inhibition of APC/thrombin” value in assay [4] was found to be 9.3 fold. Further, the figures for the “fold inhibition APC/thrombin” value in [6] and in assay [7] were 1330 fold and 9.3 fold, respectively.

B3: FL α1AT Pitts C232S (other)
chain: SDPQGDAAQKTDTSHHDQDHPTFNKITPNLAEFAFSLYRQLAHQSNSTNIFFSPVSIATAFAMLSLGTKADTHDEILEGLNFNLTEIPEAQIHEGFQELLRTLNQPDSQLQLTTGNGLFLSEGLKLVDKFLEDVKKLYHSEAFTVNFGDTEEAKKQINDYVEKGTQGKIVDLVKELDRDTVFALVNYIFFKGKWERPFEVKDTEEEDFHVDQVTTVKVPMMKRLGMFNIQHSKKLSSWVLLMKYLGNATAIFFLPDEGKLQHLENELTHDIITKFLENEDRRSASLHLPKLSITGTYDLKSVLGQLGITKVFSNGADLSGVTEEAPLKLSKAVHKAVLTIDEKGTEAAGAMFLEAIPRSIPPEVKFNKPFVFLMIEQNTKSPLFMGKVVNPTQK
notes: Serpin; E. coli, SUMO tag removed; also called α1-antitrypsin Pittsburgh
For the molecule B3, the “second-order rate constant of inhibition” value in the assay with thrombin [12] is 293000 M⁻¹ s⁻¹; in [13] it was 108000 M⁻¹ s⁻¹; in the assay with thrombin [8] it was 293000 M⁻¹ s⁻¹; in [9] it was 108000 M⁻¹ s⁻¹; in the assay with fXa, 41300 M⁻¹ s⁻¹. Also, the “inhibition of APC/fXIa” value in assay [14] was 0.3 fold. In addition, the “fold inhibition APC/fXa” value in [5] is 2.6 fold. Further, in assay [7], the “fold inhibition APC/thrombin” value amounted to 0.4 fold. Further, in assay [15], the “inhibition of APC/thrombin” value was 0.4 fold. In addition, in assay [16], the “inhibition of APC/fXa” value is 2.6 fold.

B4: FL α1AT Pitts C232S P2KP1′K (other)
chain: B3 chain with P357K, S359K
notes: E. coli, SUMO tag removed; also called P2KP1′K α1AT; P2KP1′K mutant of α1AT Pitts
Consider B4, for which the “second-order rate constant of inhibition” value came to 15100 M⁻¹ s⁻¹ in assay [13], 15100 M⁻¹ s⁻¹ in [9] and 120 M⁻¹ s⁻¹ with fXa. For the same molecule, the binding result in the assay with thrombin [17] is “no binding (tested: 4 h)”. In addition, the “inhibition of APC/fXIa” value in assay [14] was 32.2 fold. Further, the “fold inhibition APC/fXa” value in assay [5] amounted to 126 fold. Also, the “inhibition of APC/fXa” value in assay [16] worked out at 126 fold.
